Data as given in PMC12504095.

Key:
[1] = target: Streptococcus pyogenes alpha-enolase (SEn) (S. pyogenes strain AP53) (UniProt P69949); assay: cryo-EM structure; SEn reconstituted in DOPG vesicles, extruded to small unilamellar vesicles; octamer in the bilayer
[2] = target: Streptococcus pyogenes alpha-enolase (SEn) (S. pyogenes strain AP53) (UniProt P69949); assay: SPR; SEn immobilised on CM5 chip; tPA analyte 0-2000 nM in HBS-EP+ pH 7.4; 10 uL/min, 600 s association, 300 s dissociation; affinity (steady-state) fit
[3] = target: Streptococcus pyogenes alpha-enolase (SEn) (S. pyogenes strain AP53) (UniProt P69949); assay: flow cytometry on DOPG vesicles; SEn-constituted DOPG vesicles (BSA-blocked) incubated with 0.8 uM tPA in PBS for 1 h; mouse anti-tPA and Alexa Fluor 488 anti-mouse IgG

Substance | stoichiometry N [1] | Kd [2] [nM] | percent DOPG-SEn-tPA complex (FITC-positive vesicles) [3] [%]
Streptococcus pyogenes alpha-enolase (SEn) (from UniProt P69949 1-435) (enzyme) | 8 |  | 
recombinant human tissue-type plasminogen activator (tPA) (enzyme) |  | 161 | 70
